As a reminder, the koff is the rate constant with which the complex falls apart. Lower therefore signals a long-lived complex. What is called kon is the second-order rate constant of association. High values mean faster complex formation, low ones slower complex formation. By Kd is commonly meant the free concentration of one partner at which half of the binding sites on the other are occupied at equilibrium, for simple one-to-one binding.

The text below walks through data of patent US20230192897A1 (NUMAB THERAPEUTICS, published 2023).

Test [1] concerns the target T1, Fc tagged human PDL1 (human, UniProt Q9NZQ7 19-239).
T1 construct: Bought (Sino Biological, cat. 10084-H02H); captured on the SPR chip; also called PDL1-Fc chimeric protein
The test is described as follows: SPR. In short, it runs like this:
(§1)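 Kinetics were fitted with a one-to-one Langmuir model to give apparent ka, kd and KD. Binders at 0.12-90 nM (three-fold series) flowed 3 min, with 10 min dissociation and 3 M MgCl₂ regeneration, on a Biacore T200.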

For test [2], the target named is cynomolgus CD137-Fc chimeric protein (cynomolgus monkey, UniProt A9YYE7 24-186). As to the kind of experiment: SPR. In short, it runs like this: as §1
The target of test [3] is T2, mouse CD137-Fc chimeric protein (mouse, UniProt P20334 24-187, limits assumed).
T2 sequence (looked up): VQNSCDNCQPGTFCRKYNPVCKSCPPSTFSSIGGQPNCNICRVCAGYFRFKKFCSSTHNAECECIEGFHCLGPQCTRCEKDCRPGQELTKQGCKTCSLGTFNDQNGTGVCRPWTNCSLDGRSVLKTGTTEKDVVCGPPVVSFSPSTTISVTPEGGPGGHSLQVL
As to the kind of experiment: SPR. In a few lines: as §1
(In general: Surface plasmon resonance follows binding to a sensor surface in real time, without labels.)

The target of test [4] is T3, Fc tagged human CD137 (human, UniProt Q07011 24-186).
T3 construct: also called CD137-Fc chimeric protein
As to the kind of experiment: SPR. In a few lines: as §1

The target of test [5] is T4, CD137 on Jurkat NFkB reporter cells (human, UniProt Q07011 24-255). The test is described as follows: cell-based or functional assay.
Test [6] deals with T4, CD137 on Jurkat NFkB reporter cells. The test is described as follows: cell-based or functional assay. The source holds these as a separate data set.
For test [7] the target is unchanged. As to the kind of experiment: cell-based or functional assay. This is another data set of the same source.
Test [8] shares this target. As to the kind of experiment: cell-based or functional assay. This is another data set of the same source.
Test [9] shares this target. As to the kind of experiment: cell-based or functional assay. This is another data set of the same source.
For test [10] the target is unchanged. As to the kind of experiment: cell-based or functional assay. This is another data set of the same source.

Changes are numbered by the printed parent chain.

B1: PRO1123 (bispecific antibody)
chain: DIQMTQSPSSLSASVGDRVTITCQASQSINDYLAWYQQKPGKAPKLLIYKASTLASGVPSRFSGSGSGTDFTLTISSLQPEDFATYYCQQGYIITDIDNVFGTGTKVTVLGGGGGSQVQLQESGPGLVKPSETLSLTCKVSGFSFSNSYWICWVRQPPGKGLEWIGCTFVGSSDSTYYANWAKGRVTISVDSSKNQVSLKLSSVTAADTAVYFCARHPSDAVYGYANNLWGQGTLVTVSSGGGGSGGGGSGGGGSGGGGSIQMTQSPSSLSASVGDRVTITCQASQSINNVLAWYQQKPGKPPKLLIYRASTLASGVPSRFSGSGSGTDFTLTISSLQPEDFATYYCQSSYGNYGDFGTGTKVTVLGGGGGSQVQLQESGPGLVKPSETLSLTCKVSGFSFSSGYDMCWIRQPPGKGLEWIGCVVAGSVDITYYASWAKGRVTISVDSSKNQFSLKLSSVTAADTAVYYCARKDAYSDAFNLWGQGTLVTVSS
notes: scDb; also called 38-02-A04 sc05 IF scDb-i/33-03-G02 sc01 scDb-o
In test [1], B1 displayed a koff of 0.00017 s⁻¹ and a kon of 2.3e+06 M⁻¹ s⁻¹. In addition, in test [2], binding was put at a Kd of 1.3 nM, the off-rate constant (koff) came out at 0.00033 s⁻¹ and the kon amounted to 260000 M⁻¹ s⁻¹. In test [3], this molecule yielded a Kd of 410 nM, a koff of 0.027 s⁻¹ and a kon of 65000 M⁻¹ s⁻¹. Also, in test [4], the Kd turned out to be 0.58 nM, the off-rate (koff) came out at 0.00027 s⁻¹ and the kon stood at 310000 M⁻¹ s⁻¹. In test [5], the “EC50, NFkB reporter, CHO-PDL1” value turned out to be 5.75 ng/mL and the “Top of curve fit, NFkB reporter, CHO-PDL1” value was determined as 219. Further, in test [6], the “EC50, NFkB reporter, HCC827 without IFNg” value is 16.1 ng/mL and the “Top of curve fit, NFkB reporter, HCC827 without IFNg” value is 123. In test [7], the “EC50, NFkB reporter, HCC827 with IFNg” value was found to be 11.9 ng/mL and the “Top of curve fit, NFkB reporter, HCC827 with IFNg” value is 154. For the same molecule, in [8], the “IC50 (ng/ml), NFkB reporter, CHO-PD-L1” value was 5.75 ng/mL; the “IC50 (ng/ml), NFkB reporter, HCC827 + IFNg” value amounted to 11.4 ng/mL; the “IC50 (ng/ml), NFkB reporter, HCC827 - IFNg” value is 16.1 ng/mL; the “max. activation (%), NFkB reporter, CHO-PD-L1” value came to 219%. Further, in test [8], the “max. activation (%), NFkB reporter, HCC827 + IFNg” value was 154%; the “max. activation (%), NFkB reporter, HCC827 - IFNg” value was found to be 123%; the “rel. IC50 (urelumab/test), NFkB reporter, CHO-PD-L1” value came out at 18.1 fold; the “rel. IC50 (urelumab/test), NFkB reporter, HCC827 + IFNg” value came out at 12.2 fold. For the same molecule, the “rel. IC50 (urelumab/test), NFkB reporter, HCC827 - IFNg” value in test [8] stood at 6.82 fold.

B2: PRO1124 (bispecific antibody)
chain: B1 chain with V140A, V190K, I261L
notes: scDb; also called 38-02-A04 sc06 Full scDb-i/33-03-G02 sc01 scDb-o
In [1], B2 registered an off-rate constant (koff) of 0.0002 s⁻¹ and an on-rate constant (kon) of 3.1e+06 M⁻¹ s⁻¹. In test [2], this molecule came in with a koff of 0.00033 s⁻¹. Besides, the kon in [3] stood at 200000 M⁻¹ s⁻¹. Besides, in test [4], the Kd was at most 0.015 nM, the “fold improvement of affinity against PRO885” value was over 200 fold, the koff was under 1e-05 s⁻¹ and the on-rate (kon) was determined as 680000 M⁻¹ s⁻¹. Also, in test [5], the “EC50, NFkB reporter, CHO-PDL1” value is 3.68 ng/mL and the “Top of curve fit, NFkB reporter, CHO-PDL1” value was found to be 229. Moreover, in test [6], the “EC50, NFkB reporter, HCC827 without IFNg” value stood at 5.62 ng/mL and the “Top of curve fit, NFkB reporter, HCC827 without IFNg” value worked out at 113. For the same molecule, in [7], the “EC50, NFkB reporter, HCC827 with IFNg” value was 4.83 ng/mL and the “Top of curve fit, NFkB reporter, HCC827 with IFNg” value is 188. Besides, in [8], the “IC50 (ng/ml), NFkB reporter, CHO-PD-L1” value is 3.68 ng/mL; the “IC50 (ng/ml), NFkB reporter, HCC827 + IFNg” value came out at 4.83 ng/mL; the “IC50 (ng/ml), NFkB reporter, HCC827 - IFNg” value worked out at 5.62 ng/mL; the “max. activation (%), NFkB reporter, CHO-PD-L1” value stood at 229%. In addition, in [8], the “max. activation (%), NFkB reporter, HCC827 + IFNg” value is 188%; the “max. activation (%), NFkB reporter, HCC827 - IFNg” value came out at 113%; the “rel. IC50 (urelumab/test), NFkB reporter, CHO-PD-L1” value came to 23.5 fold; the “rel. IC50 (urelumab/test), NFkB reporter, HCC827 + IFNg” value is 22.4 fold. Moreover, the “rel. IC50 (urelumab/test), NFkB reporter, HCC827 - IFNg” value in test [8] came to 19.9 fold.

B3: PRO1058 (other)
chain: DIQMTQSPSSLSASVGDRVTITCQASQSINDYLAWYQQKPGKAPKLLIYKASTLASGVPSRFSGSGSGTDFTLTISSLQPEDFATYYCQQGYIITDIDNVFGTGTKVTVLGGGGGSQVQLQESGPGLVKPSETLSLTCKVSGFSFNNDYDMCWIRQPPGKGLEWIGCIDTGDGSTYYASWAKGRVTISVDSSKNQFSLKLSSVTAADTAVYYCAREAASSSGYGMGYFDLWGQGTLVTVSSGGGGSGGGGSGGGGSGGGGSIQMTQSPSSLSASVGDRVTITCQSSQSVYDNNWLAWYQQKPGKAPKLLIYRASNLASGVPSRFSGSGSGTDFTLTISSLQPEDFATYYCQGTYLSSNWYWAFGTGTKVTVLGGGGGSQVQLQESGPGLVKPSETLSLTCKVSGFSFSSGYDMCWIRQPPGKGLEWIGCVVAGSVDITYYASWAKGRVTISVDSSKNQFSLKLSSVTAADTAVYYCARKDAYSDAFNLWGQGTLVTVSSGGGGSGGGGSVVMTQSPSSLSASVGDRVTITCQASQIISSRSAWYQQKPGQPPKLLIYQASKLASGVPSRFSGSGSGTDFTLTISSLQPEDFATYYCQCTYIDSNFGAFGGGTKLTVLGGGGGSGGGGSGGGGSGGGGSEVQLVESGGGLVQPGGSLRLSCAASGFSFSSSYWICWVRQAPGKGLEWVGCVFTGDGTTYYASWAKGRFTISRDNSKNTVYLQMNSLRAEDTATYFCARPVSVYYYGMDLWGQGTLVTVSS
notes: trispecific scDb-scFv; also called 38-27-C05 sc01 scDb-i/33-03-G02 sc01 scDb-o/23-13-A01-sc03, sk17sh4
As to B3, in test [1], the binding result is on record as “binds”. In test [4], this molecule came in with an off-rate constant (koff) of 0.0021 s⁻¹. For the same molecule, in [9], the “EC50, NFkB reporter, CHO-PDL1, 6 h, +HSA” value turned out to be 70.9 ng/mL. In addition, the “EC50, NFkB reporter, CHO-PDL1, 24 h, +HSA” value in test [10] came to 121 ng/mL. Also, in [8], the “IC50 (ng/ml), NFkB reporter, CHO-PD-L1, 24 h, +HSA” value was 121 ng/mL; the “max. activation (%), NFkB reporter, CHO-PD-L1, 24 h, +HSA” value was 36.2%; the “rel. IC50 (urelumab/test), NFkB reporter, CHO-PD-L1, 24 h, +HSA” value was determined as 0.64 fold.
